Consider one molecule from patent publication US20250163176A1, “MONOCLONAL ANTIBODY AGAINST TROP2 AND USE THEREOF” (INSTITUTE OF MEDICAL BIOTECHNOLOGY, CHINESE ACADEMY OF …, priority 2022, published 2025).

Common to all, as to test: cytotoxic activity against tumor cells cultured in vitro (CCK-8)
Holding throughout (type): cell-based

One assay relates to KYSE150. As to conditions: KYSE150, 48 h culture. On the procedure: (§1) Tumor cells in the logarithmic growth phase after subculture were selected and prepared into a single-cell suspension and cell counting was performed. The cell concentration was adjusted to 3×10^3 cells/well, and the cells were inoculated into a 96-well plate with 80 μL/well. After 24 h of incubation, 20 μL of anti-Trop2-IgG, LDM, and Anti-Trop2-IgG-LDM diluted to different concentrations were added, with three parallel wells for each concentration. After 48 h of culture, 10 μL of CCK-8 reagent was added to each well in the dark, followed by shaking for 3 min and incubation in an incubator for 1 h. The 96-well plate was taken and shaken for 2 min, and the OD value at 450 nm was measured using a microplate reader. In addition to the drug-treated groups at different concentrations, three parallel wells each for the drug-free control group and the cell-free blank group were set up.

Another assay has as its system A549. As to conditions: A549, 48 h culture. On the procedure: as §1
In a further assay the test system is ECA109. As to conditions: ECA109, 48 h culture. On the procedure: as §1
Another assay has as its system A431. As to conditions: A431, 48 h culture. On the procedure: as §1

B1: LDM: antitumor antibiotic lidamycin: protein LDP (SEQ ID NO:37) with bound active enediyne (AE) chromophore of Formula I (protein)
chain: APAFSVSPASGLSDGQSVSVSVSGAAAGETYYIAQCAPVGGQDACNPATATSFTTDASGAASFSFVVRKSYTGSTPEGTPVGSVDCATAACNLGAGNSGLDLGHVALTFG
modifications: bound enediyne chromophore
One may read the IC50 as the concentration at which inhibition is half-maximal. The low end stands for greater potency in that assay, the high end for weaker potency in that assay. In the case of B1, the 50% inhibitory concentration (IC50) with KYSE150 amounted to 0.995 ± 0.008 nM; with A549, 0.169 ± 0.017 nM; with ECA109 it was 0.445 ± 0.034 nM; in the assay with A431, 0.007 ± 0.002 nM.
